Test results: patent publication US20240377400A1, “METHODS FOR TREATING A SUBTYPE OF COLORECTAL CANCER” (Cornell University, priority 2021, published 2024)

Test system: Prkci^f/fPrkcz^f/f; Villin-Cre tumors
Assay: Endogenous Prkci^f/fPrkcz^f/f; Villin-Cre tumors treated with PEGPH20: histology, tumor burden, Quant-seq
Type: in vivo, mouse
Description: FIGS. 9E-9O illustrate Prkci^f/fPrkcz^f/f; Villin-Cre mice (mOle and female, 11-week-old) treated with Veh (n=10) or PEGPH20 (n=12), 0.0375 mg/kg for 3 weeks. Experimental design (E); IHC HA, Masson's trichrome, and αSMA(F); staining quantification (n=5) (G); macroscopic images of tumors (H); total tumor number, tumor size, and tumor load (I); quantification of cancer incidence (J); and sessile serrated lesions (SSL) and carcinoma quantification of tumors (K). Scale bars, 50 μm (F), 10 mm (H). The red arrow denotes tumors>5 mm (H). (L-N) GSEA of transcriptomic data from Quant-seq on PEGPH20-treated tumors versus Veh (n=3) using compilation H (MSigDB) (L), stroma-related signatures (M) and serrated-related signatures (N). (O) GSEA plots of the indicated gene signatures for PEGPH20-treated tumors versus Veh (n=3). Results are shown as mean±SEM *p<0.05, **p<0.01, ***p<0.001, ****p<0.0001. See also FIG. 16.
Animal handling and experimental procedures conformed to institutional guidelines and were approved by the Sanford-Burnham-Prebys Medical Discovery Institute Institutional Animal Care and Use Committee, and by the Weill Cornell Medicine Institutional Animal Care and Use Committee. Prkci^f/fPrkcz^f/f, Villin-Cre, Prkci^f/fPrkcz^f/f; Villin-Cre and Villin-CreERT2 mice were previously described (el Marjou et al., 2004; Madison et al., 2002; Nakanishi et al., 2018) Prkci^f/fPrkcz^f/f; Villin-CreERT2 mice were generated by breeding Prkci^f/fPrkcz^f/f mice with Villin-CreERT2 (Jackson Laboratory, stock number 020282) mice. All mouse strains were generated in a C57BL/6 background and were born and maintained under pathogen-free conditions. For PEGPH20 treatment, 11-week-old Prkci^f/fPrkcz^f/f; Villin-Cre were retro-orbitally injected twice a week for 3 weeks with a dose of 0.0375 mg/kg of PEGPH20 (Halozyme Therapeutics), until they were sacrificed. Control mice were treated with vehicle. For xenograft experiments, 6-7 week-old male C57BL/6 were purchased from Charles River Labs (Wilmington, MA, USA). All mice were maintained on food and water ad libitum and were age-matched and co-housed for all experiments. Mice were sacrificed and small intestine, colon, tumors or other organs were collected for analysis. All genotyping was done by PCR. Age- and sex-matched mice were used for all experiments
Tissues from indicated mice were isolated, rinsed in ice-cold PBS, fixed in 10% neutral buffered formalin overnight at 4° C., dehydrated, and embedded in paraffin. Sections (5 μm) were stained with hematoxylin and eosin (H&E). For immunohistochemistry, sections were deparaffinized, rehydrated, and then treated for antigen retrieval. After blocking in Protein Block Serum-Free solutions (DAKO), tissues were incubated with primary antibody overnight at 4° C. followed by incubation with biotinylated secondary antibody. Endogenous peroxidase was quenched in 3% H2O2 in water for 10 minutes at room temperature. Antibodies were visualized with avidin-biotin complex (Vectastain Elite; Vector Laboratories) using diaminobenzidine as the chromogen. Stained sections were analyzed with a Zeiss light microscope supplemented with Zen 3.3 Bule edition software. For immunofluorescence, the signal was visualized using the OPAL™ 4-Color Manual IHC Kit (Akoya Biosciences, MA), which allows simultaneous detection of multiple targets in the same image. Fluorophores Opal 520, Opal 570, and TSA Plus Cyanine 5 were used, and the sections were counterstained with Spectral DAPI.
Total RNA was extracted using Quick-RNA MiniPrep kit (Zymo Research). Libraries were prepared from 200 ng of total RNA using the QuantSeq 3′ mRNA-Seq Library Prep Kit FWD for Illumina from Lexogen, and optional UMIs (Vienna, Austria). Barcoded libraries were pooled, and single end sequenced (1×75) on the Illumina NextSeq 500 using the High output V2.5 kit (Illumina Inc., San Diego CA).
For 3′RNA-Seq, read data was processed with the BlueBee Genomics Platform (BlueBee, San Mateo, CA). […]

[1] = small intestine, PEGPH20 0.0375 mg/kg, 3 weeks

B1: PEGPH20: a PEGylated version of human recombinant PH20 hyaluronidase; clinical-grade pegylated hyaluronidase (Halozyme Therapeutics) (protein, UniProt P38567 36-490, looked up)
Hyaluronidase PH-20: LNFRAPPVIPNVPFLWAWNAPSEFCLGKFDEPLDMSLFSFIGSPRINATGQGVTIFYVDRLGYYPYIDSITGVTVNGGIPQKISLQDHLDKAKKDITFYMPVDNLGMAVIDWEEWRPTWARNWKPKDVYKNRSIELVQQQNVQLSLTEATEKAKQEFEKAGKDFLVETIKLGKLLRPNHLWGYYLFPDCYNHHYKKPGYNGSCFNVEIKRNDDLSWLWNESTALYPSIYLNTQQSPVAATLYVRNRVREAIRVSKIPDAKSPLPVFAYTRIVFTDQVLKFLSQDELVYTFGETVALGASGIVIWGTLSIMRSMKSCLLLDNYMETILNPYIINVTLAAKMCSQVLCQEQGVCIRKNWNSSDYLHLNPDNFAIQLEKGGKFTVRGKPTLEDLEQFSEKFYCSCYSTLSCKEKADVKDTDAVDVCIADGVCIDAFLKPPMETEEPQIFYNASPSTLS
modifications: PEGylated
GSEA of Quant-seq, treated versus Veh
  signatures related to invasion and tumor progression (EMT, myogenesis, angiogenesis, TGFβ signaling), stromal activation, serrated tumorigenesis and the CMS4 subtype: decrease
GSEA of RNAseq, endogenous tumors
  IFN and allograft rejection signatures: enrichment
PEGPH20 0.0375 mg/kg twice a week, 3 weeks, IHC
  stromal HA accumulation: eliminated
PEGPH20 0.0375 mg/kg, 3 weeks
  cancer incidence in the small intestine: lower
  invasive carcinomas: reduced
  sessile serrated lesions (SSL): fewer
PEGPH20 0.0375 mg/kg, 3 weeks, Masson's trichrome, IHC
  collagen deposition and αSMA expression: reduced
Figure legend title, FIGS. 16A-16E
  intestinal and colon tumors: reduces
Proximal colon tumors
  colon tumorigenesis: reduced
[1]
  average tumor size: significant reduction
  tumor load: significant reduction
  tumor number: significant reduction
